# Substitutions are numbered along the chain they refer to.
# B1: Antibody 15A7 (antibody, V domains shown)
# VH: QVQLVQSGAEVKKPGASVKVSCKASGYTFTSYDINWVRQASGQGLEWMGWMNPNSANPGYAQKFQGRVTMTRNTSISTAFMELSSLRSDDTAVYYCARARVTIHYDILTGYYSNAFDIWGQGTMVAVSS
# VL: DIQMTQSPSSLSASVGDRVTITCRASQTISSYLNWYQQKPGKAPKLLIYAASSLQSGVPSRFSGSGSGADFTLTISSLQPEDFATYYCQQSYTTFMYTFGQGTMLEIK
# B2: Antibody 37G2 (antibody, V domains shown)
# VH: QVQLVQSGAEVKKPGSSVKVSCKASGGTFSSYAITWVRQAPGQGLEWMGGIIPIFGTANFAQKFQGRVTITADESTSTAYMELSSLRSEDTAVYYCAHLGGFADPFDYWGQGTLVTVSS
# VL: EIVLTQSPATLSLSPGERATLSCRASQSVSNYLAWYQQKAGQAPRVLIYDAFNRATGIPARFSGSGSGTDFTLTISSLEPEDFAVYYCQQRSNWPPRITFGQGTRLEIK
# B3: Antibody 31C2 (antibody, V domains shown)
# VH: QVQLVQSGAEVKKPGSSVKVSCKASGGTFSSYAISWVRQAPGQGLEWMGGIIPIFGTTNYAQKFQGRVTITADESTSTAYMELNSLRSEDTAVYYCAGRSAYGDKGYYFDYWGQGTLVTVSS
# VL: B2 VL with Y32F, A40P, V46L, F52S, E79Q, R97Q, I98E, R105K, L106V
# Experiments:
# [1] = molecular target: SARS-CoV-2 spike protein (S protein) (SARS-CoV-2, UniProt P0DTC2 16-1213); test: ELISA, coated S protein, antibody at 1 ug/mL
# Procedure: (§1) Polystyrene microplates (Corning) were coated overnight with 0.1 or 1 μg/mL of SARS-CoV-2 S, S1 or RBD protein (Sino Biological). After washing with PBS containing 0.2% Tween 20, the plates were blocked using 2% BSA (Sigma Aldrich) in PBST for 1 hour at 37° C. Following washing with PBST, testing antibodies (1 ug/mL) were added to each well and incubated at 37° C. for 1 hour. After washing with PBST, HRP-conjugated goat anti-human IgG antibody was added at the dilution of 1:5000 and incubated at 37° C. for 1 hour. After washing, 3,3′,5,5′-Tetramethylbenzidine (TMB) substrate solution was added to the microplate and incubated at room temperature for 6 min, followed by adding 2M H₂SO₄ to stop the reaction. The absorbance was detected at 450 nm.
# [2] = molecular target: SARS-CoV-2 RBD protein (receptor-binding domain of the spike protein) (SARS-CoV-2, UniProt P0DTC2 319-541); test: ELISA, coated RBD protein, antibody at 1 ug/mL
# Procedure: as §1
# SARS-CoV-2 S1 subunit = molecular target: T1, SARS-CoV-2 S1 subunit (SARS-CoV-2, UniProt P0DTC2 16-685); test: ELISA, coated S1 protein, antibody at 1 ug/mL
# T1 construct: domain: S1 subunit
# Procedure: as §1
Binder,binding result [1],binding result [2],binding result (SARS-CoV-2 S1 subunit)
B1,binds,binds,binds
B2,–,–,no binding (tested: 1 ug/mL)
B3,–,–,no binding (tested: 1 ug/mL)

# Source: patent US20220073594A1 (NEWSOARA BIOPHARMA, published 2022)
